From patent US20070265199A1 (UNIVERSITY OF ROCHESTER, published 2007)

Key:
[1] = molecular target: T1, factor IXaβ (UniProt P00740 47-191; P00740 227-461); test: factor Xa generation assay on phospholipid vesicles, factor IXa titrated with factor VIIIa
T1 construct: Bought reagent
Procedure: (§1) Factor VIII cofactor activity, factor IXa-factor VIIIa affinity, and kinetic parameters were determined using factor Xa generation assays. Reactions were performed in the presence of either phospholipid vesicles, non-activated platelets, or platelets activated by SFLLRN-amide (50 μM).

[2] = molecular target: T1, factor IXaβ; test: factor Xa generation assay on non-activated platelets, factor IXa titrated with factor VIIIa
Procedure: as §1

[3] = molecular target: T1, factor IXaβ; test: factor Xa generation assay on activated platelets (SFLLRN-amide), factor IXa titrated with factor VIIIa
Procedure: as §1

T1 sequence (P00740 47-191 limits assumed, form in doubt, chain 1 of 2): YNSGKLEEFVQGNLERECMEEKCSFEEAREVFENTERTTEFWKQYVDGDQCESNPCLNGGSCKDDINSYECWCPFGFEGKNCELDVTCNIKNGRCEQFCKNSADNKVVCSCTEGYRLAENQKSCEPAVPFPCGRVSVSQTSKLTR
T1 sequence (P00740 227-461 limits assumed, form in doubt, chain 2 of 2): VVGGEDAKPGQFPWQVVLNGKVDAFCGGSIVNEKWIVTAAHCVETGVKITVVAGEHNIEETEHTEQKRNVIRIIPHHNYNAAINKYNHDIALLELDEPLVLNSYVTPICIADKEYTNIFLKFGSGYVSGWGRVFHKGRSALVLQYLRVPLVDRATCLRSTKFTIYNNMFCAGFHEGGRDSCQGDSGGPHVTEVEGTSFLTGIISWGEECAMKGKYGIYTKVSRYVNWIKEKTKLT

Kd [1]: 5 nM | Kd [2]: 5.7 nM | Kd [3]: 6 nM
B1: factor VIIIa E113A (thrombin-activated B-domainless factor VIII bearing Glu113Ala) (other)
chain 1: ATRRYYLGAVELSWDYMQSDLGELPVDARFPPRVPKSFPFNTSVVYKKTLFVEFTVHLFNIAKPRPPWMGLLGPTIQAEVYDTVVITLKNMASHPVSLHAVGVSYWKASEGAAYDDQTSQREKEDDKVFPGGSHTYVWQVLKENGPMASDPLCLTYSYLSHVDLVKDLNSGLIGALLVCREGSLAKEKTQTLHKFILLFAVFDEGKSWHSETKNSLMQDRDAASARAWPKMHTVNGYVNRSLPGLIGCHRKSVYWHVIGMGTTPEVHSIFLEGHTFLVRNHRQASLEISPITFLTAQTLLMDLGQFLLFCHISSHQHDGMEAYVKVDSCPEEPQLRMKNNEEAEDYDDDLTDSEMDVVRFDDDNSPSFIQIR
chain 2: SVAKKHPKTWVHYIAAEEEDWDYAPLVLAPDDRSYKSQYLNNGPQRIGRKYKKVRFMAYTDETFKTREAIQHESGILGPLLYGEVGDTLLIIFKNQASRPYNIYPHGITDVRPLYSRRLPKGVKHLKDFPILPGEIFKYKWTVTVEDGPTKSDPRCLTRYYSSFVNMERDLASGLIGPLLICYKESVDQRGNQIMSDKRNVILFSVFDENRSWYLTENIQRFLPNPAGVQLEDPEFQASNIMHSINGYVFDSLQLSVCLHEVAYWYILSIGAQTDFLSVFFSGYTFKHKMVYEDTLTLFPFSGETVFMSMENPGLWILGCHNSDFRNRGMTALLKVSSCDKNTGDYYEDSYEDISAYLLSKNNAIEPR
chain 3: SFQKKTRHYFIAAVERLWDYGMSSSPHVLRNRAQSGSVPQFKKVVFQEFTDGSFTQPLYRGELNEHLGLLGPYIRAEVEDNIMVTFRNQASRPYSFYSSLISYEEDQRQGAEPRKNFVKPNETKTYFWKVQHHMAPTKDEFDCKAWAYFSDVDLEKDVHSGLIGPLLVCHTNTLNPAHGRQVTVQEFALFFTIFDETKSWYFTENMERNCRAPCNIQMEDPTFKENYRFHAINGYIMDTLPGLVMAQDQRIRWYLLSMGSNENIHSIHFSGHVFTVRKKEEYKMALYNLYPGVFETVEMLPSKAGIWRVECLIGEHLHAGMSTLFLVYSNKCQTPLGMASGHIRDFQITASGQYGQWAPKLARLHYSGSINAWSTKEPFSWIKVDLLAPMIIHGIKTQGARQKFSSLYISQFIIMYSLDGKKWQTYRGNSTGTLMVFFGNVDSSGIKHNIFNPPIIARYIRLHPTHYSIRSTLRMELMGCDLNSCSMPLGMESKAISDAQITASSYFTNMFATWSPSKARLHLQGRSNAWRPQVNNPKEWLQVDFQKTMKVTGVTTQGVKSLLTSMYVKEFLISSSQDGHQWTLFFQNGKVKVFQGNQDSFTPVVNSLDPPLLTRYLRIHPQSWVHQIALRMEVLGCEAQDLY
notes: also called factor VIII E113A; Factor VIII:E113A
